In patent publication US20190352664A1, “COMPOSITIONS AND METHODS FOR CONTROLLING GENE EXPRESSION” (priority 2017, published 2019):

B1: AT2G35510.1_1: uORF of AT2G35510.1; peptide SEQ ID NO: 11 (nucleic acid)
DNA: ATGGCTCGTCTTTTTCCAAACGATTTCTTCTTCTTCGTCGTCGCCGGTTTAGGGTTTCCGTTGCTGTAG
modifications: listed as DNA, chemistry not fully specified
B2: AT3G03070.1: 5′ UTR of transcript; NADH-ubiquinone oxidoreductase-related (nucleic acid)
DNA: AAATAAATGCGTTGTTTGGTACAGCTTCACGAACAATCTCTCTCTCGATAGATTCTTCTTACCTCTGAATTTCTCGTTGTTGGAACA
modifications: listed as DNA, chemistry not fully specified
notes: 5′ UTR of transcript; NADH-ubiquinone oxidoreductase-related
B3: AT4G11110.1: 5′ UTR of transcript; SPA1-related 2 (nucleic acid)
DNA: CTTACTTAAACACAGTCAAATTCATTTTCTGCCTTAGAAAAGATTTTTATCGAAAATCGACGTTTTTGAAAAAACTCAAATTATCGTCGTTTTGTTCTCAGATTTCTTCTGCTCTCTTCTTCTTCTCCTTCTTCTTCGTTCCACCGCCTCTGTTGCTTTATCTTCTTCTTCCTTCCTTCGATTGTTGATTACGTCGGTGGATCTTTGTTCTCCTCTGTGTTGTTTTCATTGCTAGATTTCGTCAATGATTGGCTTCTCACGATTCGATTTTTCCGGCTCCTGTTCTTAATTTCCTCTGAGAGA
B4: AT4G17840.1: 5′ UTR of transcript (nucleic acid)
DNA: ATCAAAATCAATGATCAAGGTAACGTAGTCAAGTTCAATTACTCTTTGTCAAATTTAAGTGGTCTCTATTACTAAACTATACACAACCGTTAGATCAAATAATTCTCTACCATCCAACGGTCCAAAGTCTCCACTTCTATTTATTACAATAAAATGAGAAAATAAAAACGCGCGGTCACCGATTCTCTCTCGCTCTCTCTGTTACTAAATGAAGAAGAGAATCTCTCCGGCGAGATCACCGGCGTTATTCCGATAATTTCGCCTGAGAGTTGTCGCATGTTATAA
B5: AT3G63340.1: 5′ UTR of transcript; Protein phosphatase 2C family protein (nucleic acid)
DNA: TCTTCTTCTTCGTTTTCAGGCGGGTGGAGGAGCTCAGAGCCTTCCAGAGGTAACCAACCTTTTATTACCGACAAGATTCTGCCACACAATTATTACATATTTTTGTTCCCATGAAGCAATTGTTCCTTTCAAGCATGTTTACGAGCAAAAGAGTGAAAGGGTAGCTTGATTTTTGTCTACTCTAGCTTCATTTTCTGGCGATCTTTACTTGAGATTTAAACATTTTGCTCTCGGATTGATAATAAAGAAGAATTTGGAATATCAGTAGGTTTGGTTAGGACTCTCGGATTCTGTTGTCGGTTAGATATTTGTTTTGTTTAATCCCTAGATTTAGCAGAGAAATCCCTCAAATCTCACACAATCCATGTAAGGAAGAAG
B6: AT3G15030.1: 5′ UTR of transcript; TCP family transcription factor 4 (nucleic acid)
DNA: AGATTTTTTTTTTAAACAAAGAATGGAAAAAAATGAATAAATTTGGGAAACGAGGAAGCTTTGGTTACCCAAAAAAGAAAGAAAGAAAAAATAAAAAAAAATAAAAAGAAAAGCTTTCTCTGGGTTTTTCTTGATTGGTCAATTACACATCTCCCTTTCTCTCTTCTCTCTCTCACCTTCGCTTGCTTTGCTTGCTTCATCTCTTTGGTCTCCTTCTTGCGTTTTCTATTTACTACACAGACCAAACAATAGAGAGAGACTTTAAGCTATAGAAAAAAAGAGAGAGATTCTCTCAAATATGGGTTAGTCCACAATTTTCACTAAACCTCTTCTTCTTAGGATTGTTTTTAGGGTTAGGGTTTTGAGGTGAGGAGAGCAAGTATGCGGGAGTTTCATCCTTTTTGAGTTACTCTGGATTCCTCACCCTCTAACGACGACCACCGTCGCCGCCGCCGCCGCCGTCTCGACGAATATGCTCTACCA
B7: AT2G35510.1: 5′ UTR of transcript; similar to RCD one 1 (nucleic acid)
DNA: CAAGAGTAGACCGCCGACTTAGATTTTTTCGCCGACGAGAGAATATATATAAATGGCTCGTCTTTTTCCAAACGATTTCTTCTTCTTCGTCGTCGCCGGTTTAGGGTTTCCGTTGCTGTAGCAATTTTCTCTCGCTTCTCTCTCCCCTTTTACAGTTTCTCTTATATTGCTCTTGCCTTGCGTCCAATCTCAAGAGTTCATAAGAGTTGACATTTGTGAACATCGAAGAAATACGGTGACGTTTCTTCTCTGATTACTTTTTGCCAACATGAATACTAATGTATTTATCAACAAGTGCTACAGCCTGTTTTTTTCGAAGCTGTTGGTGAGTTCCCATCCTTAGTACTGCTAGACAGTTCGGTGTGTTAGTTGACTTTATATTCAAGGTTATAGGTTTAGTGTTGTTAGTAGAGAAAA
B8: AT3G18140.1: 5′ UTR of transcript; Transducin/WD40 repeat-like superfamily protein (nucleic acid)
DNA: ATGAGAAAAGCTTGGTAAAAACCCTATTTTTCTTCTTCTCTTCAATTTACAGTTCTCTGCACCTTTTTCTTTCCCCTGTTTTTTGATCCTCAATCACCAAACCCTAGCTTGTTCTTCTGTTGATTATTTCGAAAAGGGGGTTTGTTTGTTTTCTGGGAATCAGCAAAAATCACGAAATGGTTGGTTTAATATTTCAATCGGGATAAAATCGATCGAAA
B9: AT3G55020.1: 5′ UTR of transcript; Ypt/Rab-GAP domain of gyp1p superfamily protein (nucleic acid)
DNA: GTCACACATGTAATAAACCTTGGTCGACAATCTCGCCCTTTCCATGTGATTTCTCCACTTCCTCTCTCTCTCTACTGCAACTTCCTCCTCCTGCTTCAACTTCATTCGGGTAATGATGAACTAGCGTAGAGATTTGGATCTTCTTCTTCGTCCTCTCACCAACTCTTCACCGGTTAGATCTCTTTTTCACGCTAACGA
B10: AT2G47210.1: 5′ UTR of transcript; myb-like transcription factor family protein (nucleic acid)
DNA: AAACTGCTGACCGATCCCAAAGGTTGAAAGATTCTTTGGCGCTAAAAAATCCCCAGTTCCCAAATCGGCGTCCTCGTTTGAAACCCTAATTCCTGAATCGAAGCAGATCCTGATCGAATCGAAGGTGTTCGAATGATAGCTACCCAGTAAATTCAGAACCCTAATTAACA
B11: AT3G56010.1: 5′ UTR of transcript (nucleic acid)
DNA: GTGTTTAGCTTCTTCACTACCACACAGAAACAGAGTTTCCGTCTTTCATCTTCCTCCATATGCGTCGCTCTTAAAAACCTAATTCACA
modifications: listed as DNA, chemistry not fully specified
notes: 5′ UTR of transcript
B12: AT2G42950.1: 5′ UTR of transcript; Magnesium transporter CorA-like family protein (nucleic acid)
DNA: ACATTCATCTCTCTCTCTCAGTCAAATTGTTGTTTTCTTTCTTCGAATCGGTGCAGAAAATTCAGGGAAGTTCTGGGGAAGGTTGTTGCGTTTGACTCCTTTGGCTTAGTTTTCTTTCGAATTCCGTGCTTCCTGATGATCTTACGTGAAATTGCAGCCTAAAATTTCGAGATTGTTTTTTTTACTCAGAAAACGAGATTTGACTGATATGAATCGAAAATCTGTGATTTAAAGTGAAGC
B13: AT4G23740.1: 5′ UTR of transcript; Leucine-rich repeat protein kinase family protein (nucleic acid)
DNA: CTTTCACCCACTTTAATATGCCAAAAAATAAGAACAAAATTATATCCGTTGCTTGAAAATCACAAGCTCTTCTTAACTTCACAAGTGCTTCAATGGCGGTTCTTCACATTATCTTCACTGCGTAATTGAAGAAGTTGTTCTCTCTTCCTCTTAATTTCGAGTTGTGTTCTTAAAAAACTCCAGAGCTGATTCGATTCTCGAGAAGAAACTAAGCCGACAATAAAGTTCAGATCTGGAAAAAAGCGAGCTCCAGATTACAAAAAGAAACAGCTCGTTTTTTTCACTTTCAAAAAA
B14: AT4G18570.1: 5′ UTR of transcript; Tetratricopeptide repeat (TPR)-like superfamily protein (nucleic acid)
DNA: ATTTTTATTACTCTCTCAAGTAGTCTCATCTTCTTCTTAATCCAAAGGCCCAAACTTTGAATCATCACTATCACTCTCTCTCTCTCTCTCTATCTCTCAAGAACTGCACGGACAACGACATGCTTTTAATTTCCATGCAAATCTCTCCTTTCTTCTCAAGTCATTTTTGAAAATCAATCAAAAAACTGAAACTTGGTGGAGCTTTTATCATTCACTCATCA
B15: AT1G16700.1: 5′ UTR of transcript; Alpha-helical ferredoxin (nucleic acid)
DNA: AAATTAAGAGACATCTGATCGAATTTTGTTCCGACGACCGTGAATCACCAGCAAAGGATTCGTGTCAATGTTCTTGTGAGATCGAACTTTCTCTGGGTTCGTGCAGAAGCTTTGCTTTTTTGAGTATCGCGTTTAAGGCACATCGAAGAAGAGAGACCCTAATTTGATATTTTGAGTTCTATCG

System: Arabidopsis
Assay: Ribo-seq and RNA-seq global translatome profiling (translational efficiency TE, mORF/uORF ribo-shift) upon elf18 treatment
Type: in vivo
Set-up: key to score (Ribo-shift): Up: ribo-shift up (i.e., increased mORF/uORF ratio); Down: ribo-shift down (i.e., decreased mORF/uORF ratio)
Settings: shift of mORF/uORF ratio, elf18 vs Mock; per uORF

Molecule	score (Ribo-shift)
B1	Up

Same assay, conditions: translational efficiency fold change, elf18 vs Mock; listed as shows 5′ UTR of the transcript

Molecule	score (TE change)
B2	TEdown (389 genes displayed decreased TEfc (|z|≥1.5))
B3	TEup (448 had increased TEfc)
B4	TEup (448 had increased TEfc)
B5	TEdown (389 genes displayed decreased TEfc (|z|≥1.5))
B6	TEdown (389 genes displayed decreased TEfc (|z|≥1.5))
B7	TEup (448 had increased TEfc)
B8	TEup (448 had increased TEfc)
B9	TEup (448 had increased TEfc)
B10	TEdown (389 genes displayed decreased TEfc (|z|≥1.5))
B11	TEup (448 had increased TEfc)
B12	TEdown (389 genes displayed decreased TEfc (|z|≥1.5))
B13	TEup (448 had increased TEfc)
B14	TEdown (389 genes displayed decreased TEfc (|z|≥1.5))
B15	TEdown (389 genes displayed decreased TEfc (|z|≥1.5))
